Test results taken from the supplement of paper PMC10201428.
± gives the standard deviation of the averaged measurements.

B1: library; a variant is named by its letters at N, in order (parent)
chain: AATGTTGTTGATGCAACCATAAAGTGATATTTAATAATTATTTATAATCAGCAACTTAACCACAAAACAACCATATATTGATATNTCACAAAACAACCATAANTTGATATTTTTGTGAATCGAGTATTTCAGCAAAACTACTGCAGTAAGAA

How the values were obtained:
[1] = variants of: B1; experiment: relative integration efficiency (T-LR orientation) vs wild-type transposon end (log2 (normalized fold change)); transposon end mutated: left end; higher = more efficient transposition; conditions: with VchCAST RNA-guided transposition machinery (E. coli BL21(DE3) host, lacZ target)
Outline: (§1)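 Co-transformation of E. coli BL21(DE3) combined a pUC57 mini-transposon donor, holding barcoded pools of 1549 left-end or 1849 right-end variants, with a T7-driven plasmid encoding a CRISPR array, tniQ-cas8-cas7-cas6 and tnsA-tnsB-tnsC. After plating with 0.1 mM IPTG at 37°C for 18 h, input plasmids and genomic integration junctions were PCR-amplified and Illumina-sequenced across two biological output replicates, with four reference barcodes. Relative integration efficiency is the normalised, log-transformed output/input barcode fold change.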

[2] = variants of: B1; experiment: relative integration efficiency (T-RL orientation) vs wild-type transposon end (log2 (normalized fold change)); transposon end mutated: left end; higher = more efficient transposition; conditions: with VchCAST RNA-guided transposition machinery (E. coli BL21(DE3) host, lacZ target)
Outline: as §1

Variant | relative integration efficiency (log2) [1] | relative integration efficiency (log2) [2]
CG G24A | 0.726 ± 0.12 | 0.3 ± 0.075
CG G24T | 0.871 ± 0.023 | 0.72 ± 0.19
CG G24C | -0.15 ± 0.17 | -0.164 ± 0.021
CG G80T A81C | -1.7 ± 0.97 | -1.51 ± 0.7
CG G106C A107T | -1.92 ± 1.4 | -1.78 ± 0.63
CG G122T A123C G124T T125G | 0.252 ± 0.21 | 0.127 ± 0.054
CG G26T G80T G106T | -1.86 ± 1.8 | -2.79 ± 1.3
CG T5G T6G G7T T8G | < -10 | -6.89 ± 0.7
CG C94A A95C A96C C97A | -1.9 ± 0.51 | -1.87 ± 0.78
CG C60G C61G | 0.337 ± 0.57 | -0.185 ± 0.23
CG G51C | -0.456 ± 0.66 | -0.42 ± 0.19
CG G51T | 0.637 ± 0.29 | 0.00628 ± 0.18
CG G51A | 0.634 ± 0.19 | 0.302 ± 0.085
CG C55G T56A | 0.0301 ± 0.44 | 0.0691 ± 0.024
CG G117C | -0.761 ± 0.33 | -0.41 ± 0.12
CG G117A | -0.315 ± 0.5 | -0.123 ± 0.016
CG G117T | -0.0744 ± 0.017 | -0.0764 ± 0.036
CG C97G C98G A99T T100A | -0.482 ± 0.85 | -1.36 ± 0.79
CG G117C A118T A119T T120A | 0.101 ± 0.3 | 0.268 ± 0.02
CG C89T | 0.203 ± 0.062 | -0.158 ± 0.031
CG C89A | 0.447 ± 0.3 | 0.031 ± 0.013
CG C89G | 0.0739 ± 0.015 | -0.315 ± 0.029
CG C60A C61A | 0.547 ± 0.41 | 0.353 ± 0.049
CG C89G A90T | 0.739 ± 0.17 | 0.378 ± 0.24

Variant | relative integration efficiency (log2) [1] | relative integration efficiency (log2) [2]
CG G115C T116A G117C A118T | 0.334 ± 0.11 | -0.12 ± 0.028
CG C52A A53C | 0.0739 ± 0.63 | -0.177 ± 0.1
CG C49G A50T G51C C52G | -1.24 ± 0.76 | -1.58 ± 0.9
CG C14A A15C | -0.0841 ± 0.4 | -0.0319 ± 0.34
CG T5G T6G | < -10 | –
CG C87G A88T | 0.294 ± 0.33 | 0.11 ± 0.21
CG G26C G80C G106C | -5.11 ± 2.5 | -6.9 ± 1.7
CG C97A C98A A99C T100G | -1.52 ± 0.82 | -2.58 ± 1
CG C55G T56A T57A A58T | -2.28 ± 0.67 | -0.983 ± 0.39
CG G24C T25A | -0.543 ± 0.54 | -0.605 ± 0.37
CG G51T C52A A53C A54C | -0.964 ± 0.62 | -0.488 ± 0.45
CG G115T T116G G117T A118C A119C T120G C121A G122T A123C G124T T125G | 0.199 ± 0.37 | 0.000247 ± 0.072
CG C49A A50T C52T T56C T57A C60A C61G A62T C63A | -3.63 ± 0.43 | -5.28 ± 0.94
CG G4T T5G T6G G7T | < -10 | -6.583 ± 0.046
CG C89A A90C A91C A92C | -0.143 ± 0.65 | -0.537 ± 0.37
CG C68G A69T A70T C71G | -0.963 ± 0.71 | -1.93 ± 0.91
CG C94G A95T A96T C97G | -1.95 ± 1.2 | -0.731 ± 1
CG G24A T30A | 0.342 ± 0.15 | 0.261 ± 0.027
CG T3G | 0.394 ± 0.5 | 0.0915 ± 0.044
CG T3A | -0.175 ± 0.58 | -0.148 ± 0.071
CG T3C | 0.718 ± 0.1 | 0.297 ± 0.0045
CG C14A A15C A16C C17A | -1.81 ± 1 | -1.38 ± 0.6
CG C89G A90T A91T A92T | -0.0713 ± 0.9 | -0.00767 ± 0.14
CG C55A T56G | -0.293 ± 0.89 | 0.0947 ± 0.38

Variant | relative integration efficiency (log2) [1] | relative integration efficiency (log2) [2]
CG C52G A53T A54T C55G | 0.133 ± 0.24 | 0.0283 ± 0.2
CG C61A A62C C63A A64C | -0.0245 ± 0.0054 | 0.137 ± 0.14
CG G4C T5A | 0.189 ± 0.31 | 0.0402 ± 0.15
CG G26A | -0.184 ± 0.65 | -0.427 ± 0.47
CG G26T | -0.577 ± 1.1 | -0.329 ± 0.41
CG G26C | -1.96 ± 1.7 | -1.36 ± 0.65
CG G4C | 0.0545 ± 0.11 | -0.131 ± 0.036
CG G4T | 0.222 ± 0.16 | -0.172 ± 0.075
CG G4A | -0.235 ± 0.11 | -0.0961 ± 0.035
CG C71G C72G A73T T74A | -1.87 ± 0.61 | -2.18 ± 0.97
CG G26T A27C | -0.945 ± 0.26 | -1.68 ± 0.7
CG T5A T6A | < -10 | -6.46 ± 0.12
CG G7T | -4.09 ± 0.17 | -2.59 ± 0.72
CG G7A | -0.532 ± 0.023 | -0.156 ± 0.15
CG G7C | -0.0662 ± 0.49 | -0.11 ± 0.25
CG C14A | -0.739 ± 0.55 | -0.546 ± 0.32
CG C14G | -0.527 ± 0.35 | -0.0895 ± 0.33
CG C14T | 0.167 ± 0.37 | -0.295 ± 0.18
CG G80T A81C T82G A83C | -2.93 ± 1.9 | -2.64 ± 0.94
CG C97G C98G | -1.23 ± 0.91 | -1.07 ± 0.5
CG C55G | 0.245 ± 0.15 | 0.177 ± 0.069
CG C55A | -0.0412 ± 0.7 | 0.0708 ± 0.088
CG C55T | 0.102 ± 0.26 | -0.123 ± 0.13
CG G51C C52G A53T A54T | -0.796 ± 0.93 | -0.34 ± 0.37

Variant | relative integration efficiency (log2) [1] | relative integration efficiency (log2) [2]
CG C98T | -0.0503 ± 0.61 | -0.178 ± 0.14
CG C98A | -0.338 ± 1.2 | -0.0969 ± 0.46
CG C98G | -0.135 ± 0.48 | -0.464 ± 0.23
TG G24A T30A T76A T78A T84A C87A | 0.236 ± 0.09 | 0.0157 ± 0.17
TG G24A T30A A70C T76A T84A C87A | 0.298 ± 0.13 | -0.172 ± 0.16
CG G106A | -1.25 ± 1.6 | -0.788 ± 0.47
CG G106C | -2.1 ± 1.4 | -1.81 ± 0.62
CG G106T | -1.19 ± 0.64 | -0.797 ± 0.42
CG C61A A62C | 0.514 ± 0.034 | 0.443 ± 0.054
CG C63G A64T A65T A66T | 0.34 ± 0.24 | 0.217 ± 0.0048
CG T3G G4T | 0.453 ± 0.4 | 0.121 ± 0.041
CG C17G C18G | -0.437 ± 0.49 | -0.313 ± 0.33
CG C72A A73C T74G A75C | -2.39 ± 1.6 | -2.27 ± 0.64
CG G7T T8G | < -10 | -7.23 ± 1.1
CG G106C A107T T108A A109T | -1.44 ± 0.63 | -1.36 ± 0.7
CG C14G A15T | -1.58 ± 0.72 | -0.642 ± 0.37
CG C60G C61G A62T C63G | 0.27 ± 0.29 | -0.0479 ± 0.14
CG C87A A88C C89A A90C | 0.382 ± 0.34 | 0.292 ± 0.29
CG G26C A27T T28A A29T | -1.67 ± 0.28 | -1.58 ± 0.67
CG C71A C72A | -1.63 ± 1.1 | -1.05 ± 0.77
CG C18G A19T T20A A21T | -2.57 ± 1.4 | -1.37 ± 0.56
CG T3G G4T T5G T6G | < -10 | -7.767 ± 0.04
CG G51C C52G | -0.162 ± 0.74 | -0.107 ± 0.11
CG G10T A11C | -2.92 ± 0.037 | -1.58 ± 0.41

Variant | relative integration efficiency (log2) [1] | relative integration efficiency (log2) [2]
TG G24A T30A T76A T78G C87A | 0.0926 ± 0.5 | 0.0283 ± 0.13
CG G13C | -0.392 ± 0.57 | 0.0316 ± 0.11
CG G13A | 0.397 ± 0.29 | 0.195 ± 0.069
CG G13T | -0.887 ± 0.83 | 0.0664 ± 0.041
CG G24C T25A G26C A27T | -2.36 ± 0.61 | -2.38 ± 0.98
CG G51T C52A | 0.348 ± 0.34 | 0.159 ± 0.19
CG C71A C72A A73C T74G | -2.28 ± 1.8 | -2.51 ± 1
CG C63A A64C | 0.557 ± 0.37 | -0.135 ± 0.079
CG C68A A69C A70C C71A | -1.37 ± 0.95 | -1.67 ± 0.63
CG C94G A95T | -2.11 ± 0.65 | -1.23 ± 0.53
CG C87G A88T C89G A90T | 0.251 ± 0.48 | -0.077 ± 0.18
CG C17G | 0.155 ± 0.37 | -0.344 ± 0.25
CG C17T | -0.0678 ± 0.41 | -0.0235 ± 0.16
CG C17A | 0.131 ± 0.49 | 0.0401 ± 0.23
CG G13C C14G | -0.831 ± 0.62 | -0.232 ± 0.36
CG C52G | 0.484 ± 0.31 | -0.00219 ± 0.15
CG C52A | 0.484 ± 0.55 | 0.279 ± 0.017
CG C52T | 0.154 ± 0.19 | 0.201 ± 0.14
CG C98A A99C T100G A101C | -1.33 ± 0.029 | -2.27 ± 0.92
CG G13T C14A A15C A16C | -1.69 ± 1.1 | -0.389 ± 0.12
